B1: 12(2) (ssDNA)
DNA: CCTGGACGGAACCAGAATACTTTTGGTCTCCAGG
modifications: 2'-OMe C30,C31
B2: 12(3) (ssDNA)
DNA: B1 DNA
modifications: 2'-OMe A32,G33,G34
B3: 12(126) (ssDNA)
DNA: B1 DNA
modifications: 2'-OMe C7,G9,A14,G15,A19,C20,A32,G33,G34; P-methyl C31; idT 5' and 3'
B4: 12(96) (ssDNA)
DNA: B1 DNA
modifications: 2'-OMe C7,G9,A14,G15,A19,C20,A32,G33,G34; P-methyl T29; idT 5' and 3'
B5: 12(60) (ssDNA)
DNA: B1 DNA
modifications: 2'-OMe C7,G9,A14,G15,A19,C20,A32,G33,G34; P-methyl T18; idT 5' and 3'
B6: 12(107) (ssDNA)
DNA: B1 DNA
modifications: 2'-OMe C7,G9,A14,G15,A19,C20,A32,G33,G34; PS after C1; idT 5' and 3'
B7: 12(115) (ssDNA)
DNA: B1 DNA
modifications: 2'-OMe C7,G9,A14,G15,A19,C20,A32,G33,G34; PS after A32; idT 5' and 3'
B8: 12(128) (ssDNA)
DNA: B1 DNA
modifications: 2'-OMe C7,G9,A14,G15,A19,C20,A32,G33,G34; P-methyl G5; idT 5' and 3'
B9: 12(125) (ssDNA)
DNA: B1 DNA
modifications: 2'-OMe C7,G9,A14,G15,A19,C20,A32,G33,G34; P-methyl A17; idT 5' and 3'
B10: 12(98) (ssDNA)
DNA: B1 DNA
modifications: 2'-OMe C7,G9,A14,G15,A19,C20,A32,G33,G34; PS after G15; idT 5' and 3'
B11: 12(90) (ssDNA)
DNA: B1 DNA
modifications: 2'-OMe C7,G9,A14,G15,A19,C20,A32,G33,G34; P-methyl G25; idT 5' and 3'
B12: 12(85) (ssDNA)
DNA: B1 DNA
modifications: 2'-OMe C7,G9,A14,G15,A19,C20,A32,G33,G34; PS after T27; idT 5' and 3'
B13: 12(64) (ssDNA)
DNA: B1 DNA
modifications: 2'-OMe C7,G9,A14,A19,C20,A32,G33,G34; P-methyl G15; idT 5' and 3'
B14: 12(99) (ssDNA)
DNA: B1 DNA
modifications: 2'-OMe C7,G9,A14,G15,A19,C20,A32,G33,G34; PS after A16; idT 5' and 3'
B15: 12(87) (ssDNA)
DNA: B1 DNA
modifications: 2'-OMe C7,G9,A14,G15,A19,C20,A32,G33,G34; PS after T23; idT 5' and 3'
B16: 12(117) (ssDNA)
DNA: B1 DNA
modifications: 2'-OMe C7,G9,A14,G15,A19,C20,A32,G33,G34; PS after G8; 5' 40 kDa PEG (GL2-400GS2) via ssH linker; 3' idT
B17: 12(70) (ssDNA)
DNA: B1 DNA
modifications: 2'-OMe C7,G9,A14,G15,A19,C20,U23,A32,G33,G34; idT 5' and 3'
B18: 12(75) (ssDNA)
DNA: B1 DNA
modifications: 2'-OMe C7,G9,A14,G15,U18,A19,C20,A32,G33,G34; idT 5' and 3'
B19: 12(63) (ssDNA)
DNA: B1 DNA
modifications: 2'-OMe C7,G9,A14,G15,A19,C20,G33,G34; P-methyl A32; idT 5' and 3'
B20: 12(114) (ssDNA)
DNA: B1 DNA
modifications: 2'-OMe C7,G9,A14,G15,A19,C20,A32,G33,G34; PS after C31; idT 5' and 3'
B21: 12(122) (ssDNA)
DNA: B1 DNA
modifications: 2'-OMe C7,G9,A14,G15,A19,C20,A32,G33,G34; P-methyl T22; idT 5' and 3'
B22: 12(74) (ssDNA)
DNA: B1 DNA
modifications: 2'-OMe C7,G9,A14,G15,A19,C20,U21,A32,G33,G34; idT 5' and 3'
B23: 12(102) (ssDNA)
DNA: B1 DNA
modifications: 2'-OMe C7,G9,A14,G15,A19,C20,A32,G33,G34; PS after C20; idT 5' and 3'
B24: 12(127) (ssDNA)
DNA: B1 DNA
modifications: 2'-OMe C7,G9,A14,G15,A19,C20,A32,G33,G34; P-methyl C30; idT 5' and 3'
B25: 12(109) (ssDNA)
DNA: B1 DNA
modifications: 2'-OMe C7,G9,A14,G15,A19,C20,A32,G33,G34; PS after T3; idT 5' and 3'
B26: 12(71) (ssDNA)
DNA: B1 DNA
modifications: 2'-OMe C7,G9,A14,G15,A19,C20,U29,A32,G33,G34; idT 5' and 3'
B27: 12(79) (ssDNA)
DNA: B1 DNA
modifications: 2'-OMe C7,G9,A14,G15,A19,C20,A32,G33,G34; PS after A11; idT 5' and 3'
B28: 12(110) (ssDNA)
DNA: B1 DNA
modifications: 2'-OMe C7,G9,A14,G15,A19,C20,A32,G33,G34; PS after G4; idT 5' and 3'
B29: 12(66) (ssDNA)
DNA: B1 DNA
modifications: 2'-OMe C7,G9,A14,G15,A19,C20,A32,G33,G34; 5' 40 kDa PEG (GL2-400TS) via ssH linker; 3' idT
B30: 12(89) (ssDNA)
DNA: B1 DNA
modifications: 2'-OMe C7,G9,A14,G15,A19,C20,A32,G33,G34; P-methyl G26; idT 5' and 3'
B31: 12(91) (ssDNA)
DNA: B1 DNA
modifications: 2'-OMe C7,G9,A14,G15,A19,C20,A32,G33,G34; P-methyl C13; idT 5' and 3'
B32: 12(111) (ssDNA)
DNA: B1 DNA
modifications: 2'-OMe C7,G9,A14,G15,A19,C20,A32,G33,G34; PS after G5; idT 5' and 3'
B33: 12(80) (ssDNA)
DNA: B1 DNA
modifications: 2'-OMe C7,G9,A14,G15,A19,C20,A32,G33,G34; PS after C12; idT 5' and 3'
B34: 12(123) (ssDNA)
DNA: B1 DNA
modifications: 2'-OMe C7,G9,A14,G15,A19,C20,A32,G33,G34; P-methyl T21; idT 5' and 3'
B35: 12(101) (ssDNA)
DNA: B1 DNA
modifications: 2'-OMe C7,G9,A14,G15,A19,C20,A32,G33,G34; PS after T18; idT 5' and 3'
B36: 12(108) (ssDNA)
DNA: B1 DNA
modifications: 2'-OMe C7,G9,A14,G15,A19,C20,A32,G33,G34; PS after C2; idT 5' and 3'
B37: 12(78) (ssDNA)
DNA: B1 DNA
modifications: 2'-OMe C7,G9,A14,G15,A19,C20,A32,G33,G34; PS after A10; idT 5' and 3'
B38: 12(62) (ssDNA)
DNA: B1 DNA
modifications: 2'-OMe C7,G9,A14,G15,A19,C20,A32,G33,G34; P-methyl C28; idT 5' and 3'
B39: 12(83) (ssDNA)
DNA: B1 DNA
modifications: 2'-OMe C7,G9,A14,G15,A19,C20,A32,G33,G34; PS after G25; idT 5' and 3'
B40: 12(76) (ssDNA)
DNA: B1 DNA
modifications: 2'-OMe C7,G9,A14,G15,A19,C20,A32,G33,G34; PS after A6; idT 5' and 3'
B41: 12(82) (ssDNA)
DNA: B1 DNA
modifications: 2'-OMe C7,G9,A14,G15,A19,C20,A32,G33,G34; PS after T24; idT 5' and 3'
B42: 12(112) (ssDNA)
DNA: B1 DNA
modifications: 2'-OMe C7,G9,A14,G15,A19,C20,A32,G33,G34; PS after T29; idT 5' and 3'
B43: 12(73) (ssDNA)
DNA: B1 DNA
modifications: 2'-OMe C7,G9,A14,G15,A19,C20,U22,A32,G33,G34; idT 5' and 3'
B44: 12(113) (ssDNA)
DNA: B1 DNA
modifications: 2'-OMe C7,G9,A14,G15,A19,C20,A32,G33,G34; PS after C30; idT 5' and 3'
B45: 12(95) (ssDNA)
DNA: B1 DNA
modifications: 2'-OMe C7,G9,A14,G15,A19,C20,A32,G33,G34; P-methyl A6; idT 5' and 3'
B46: 12(129) (ssDNA)
DNA: B1 DNA
modifications: 2'-OMe C7,G9,A14,G15,A19,C20,A32,G33,G34; P-methyl T3; idT 5' and 3'
B47: 12(59) (ssDNA)
DNA: B1 DNA
modifications: 2'-OMe C7,G9,A14,G15,A19,C20,A32,G33,G34; P-methyl G4; idT 5' and 3'
B48: 12(120) (ssDNA)
DNA: B1 DNA
modifications: 2'-OMe C7,G9,A14,G15,A19,C20,A32,G33,G34; P-methyl T24; idT 5' and 3'
B49: 12(124) (ssDNA)
DNA: B1 DNA
modifications: 2'-OMe C7,G9,A14,G15,A19,C20,A32,G33,G34; P-methyl A16; idT 5' and 3'
B50: 12(67) (ssDNA)
DNA: B1 DNA
modifications: 2'-OMe C7,G9,A14,G15,A19,C20,A32,G33,G34; 5' 40 kDa PEG (GL4-400TS) via ssH linker; 3' idT
B51: 12(81) (ssDNA)
DNA: B1 DNA
modifications: 2'-OMe C7,G9,A14,G15,A19,C20,A32,G33,G34; PS after C13; idT 5' and 3'
B52: 12(58) (ssDNA)
DNA: B1 DNA
modifications: 2'-OMe C7,G9,A14,G15,A19,C20,A32,G33,G34; P-methyl C2; idT 5' and 3'
B53: 12(103) (ssDNA)
DNA: B1 DNA
modifications: 2'-OMe C7,G9,A14,G15,A19,C20,A32,G33,G34; PS after T21; idT 5' and 3'
B54: 12(106) (ssDNA)
DNA: B1 DNA
modifications: 2'-OMe C7,G9,A14,G15,A19,C20,A32,G33,G34; PS after C7; idT 5' and 3'
B55: 12(104) (ssDNA)
DNA: B1 DNA
modifications: 2'-OMe C7,G9,A14,G15,A19,C20,A32,G33,G34; PS after T22; idT 5' and 3'
B56: 12(116) (ssDNA)
DNA: B1 DNA
modifications: 2'-OMe C7,G9,A14,G15,A19,C20,A32,G33,G34; PS after G33; idT 5' and 3'
B57: 12(68) (ssDNA)
DNA: B1 DNA
modifications: 2'-OMe U3,C7,G9,A14,G15,A19,C20,A32,G33,G34; idT 5' and 3'
B58: 12(100) (ssDNA)
DNA: B1 DNA
modifications: 2'-OMe C7,G9,A14,G15,A19,C20,A32,G33,G34; PS after A17; idT 5' and 3'
B59: 12(130) (ssDNA)
DNA: B1 DNA
modifications: 2'-OMe C7,G9,A14,G15,A19,C20,A32,G33,G34; P-methyl C1; idT 5' and 3'
B60: 12(86) (ssDNA)
DNA: B1 DNA
modifications: 2'-OMe C7,G9,A14,G15,A19,C20,A32,G33,G34; PS after C28; idT 5' and 3'
B61: 12(121) (ssDNA)
DNA: B1 DNA
modifications: 2'-OMe C7,G9,A14,G15,A19,C20,A32,G33,G34; P-methyl T23; idT 5' and 3'
B62: 12(65) (ssDNA)
DNA: B1 DNA
modifications: 2'-OMe C7,G9,A14,G15,A19,A32,G33,G34; P-methyl C20; idT 5' and 3'

Each binder was assayed against autotaxin (endogenous, human pooled serum) (Homo sapiens, UniProt Q13822 Q13822:36-863) (assay: inhibition; LPA production in serum, 5.0 uM).

Row | Binder | activity [% inhibition]
1 | B1 | 80
2 | B2 | 92

Each binder was assayed against autotaxin (ENPP2/NPP2) (Homo sapiens, UniProt Q13822 Q13822:36-863) (assay: inhibition; LPA production, 0.10 uM aptamer, ~92% serum, 37C 3 h).

Row | Binder | activity [% inhibition]
3 | B3 | 77
4 | B4 | 76
5 | B5 | 50
6 | B6 | 75
7 | B7 | 77
8 | B8 | 78
9 | B9 | 78
10 | B10 | 76
11 | B11 | 63
12 | B12 | 68
13 | B13 | 63
14 | B14 | 81
15 | B15 | 70
16 | B16 | 90
17 | B17 | 9
18 | B18 | 65
19 | B19 | 59
20 | B20 | 75
21 | B21 | 65
22 | B22 | 31

Row | Binder | activity [% inhibition]
23 | B23 | 72
24 | B24 | 79
25 | B25 | 68
26 | B26 | 31
27 | B27 | 37
28 | B28 | 63
29 | B29 | 77
30 | B30 | 48
31 | B31 | 58
32 | B32 | 60
33 | B33 | 85
34 | B34 | 74
35 | B35 | 81
36 | B36 | 68
37 | B37 | 62
38 | B38 | 75
39 | B39 | 54
40 | B40 | 67
41 | B41 | 51
42 | B42 | 69

Row | Binder | activity [% inhibition]
43 | B43 | 11
44 | B44 | 66
45 | B45 | 64
46 | B46 | 73
47 | B47 | 71
48 | B48 | 67
49 | B49 | 76
50 | B50 | 74
51 | B51 | 70
52 | B52 | 69
53 | B53 | 88
54 | B54 | 68
55 | B55 | 74
56 | B56 | 72
57 | B57 | 53
58 | B58 | 80
59 | B59 | 77
60 | B60 | 57
61 | B61 | 80
62 | B62 | 57

— US20170137818, “APTAMER INHIBITING BIOLOGICAL ACTIVITY OF AUTOTAXIN BY BINDING WITH AUTOTAXIN, AND USE THEREOF” (RIBOMIC INC., published 2017)
